Assay results from patent publication US12214052 (HOSPITAL FOR SICK CHILDREN, dated 2025).
Changes are numbered by the printed parent chain.

T1: NANP 5-mer peptide (NANP5) (Plasmodium falciparum)
T1 peptide: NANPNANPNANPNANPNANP

B1: 1210 Fab (Fab, V domains shown)
VH: QVQLVESGGGVVQPGRSLRLSCAASGFTFSNYGMHWVRQAPGKGLEWVAVIWYDGSKKYYADSVKGRFTISRDNSKNTLYLQMNSLRAEDTAVYYCARVRDSSDYYGDAFDIWGQGTMVTVSS
VL: DIQMTQSPSTLSASVGDRVTITCRASQSISSWLAWYQQKPGKAPKLLIYKASNLESGVPLRFSGSGSGTEFTLTISSLQPDDFATYYCQQYNNYWTFGQGTKVEIK
B2: 1210_GL Fab (Fab, V domains shown)
VH: B1 VH with N31S, K57N
VL: not shown
B3: 1210 H.D100Ymut_K.N92Ymut (1210_YY) Fab (Fab, V domains shown)
VH: B1 VH with D104Y
VL: B1 VL with N92Y
B4: 1210_H.K56_Nrev_K.N93_Srev (1210_NS) Fab (Fab, V domains shown)
VH: B1 VH with K57N
VL: B1 VL with N93S

Biological target: T1, NANP 5-mer peptide (NANP5)
Test: ITC

Binder | binding stoichiometry
B1 | ~2
B2 | ~2
B3 | ~2
B4 | ~2
